Test results taken from patent US20260374864 (published 2026).

B1: CD22-mAb-4 (antibody, V domains shown)
VH: QVQLVESGGGVVQPGRSLRLSCAASGFTFSSYGMHWVRQAPGKGLEWVAIIYYDGSKKYYADSVKGRFTISRDNSKNTLYLQMNSLRAEDTAVYYCARELTGDAFDIWGQGTKVTVSS
VL: EIVLTQSPDFQSVTPKEKVTITCRASQSIGSSLHWYQQKPDQSPKLLIKYASQSFSGVPSKFIGSGSGTDFTLTINSLEAEDAATFYCHQSSTLPYTFGQGTKLEIK
B2: CD22-mAb-1 (antibody, V domains shown)
VH: QVQLVQSGAEVKKPGASVKVSCKASGYTFTGYYIHWVRQAPGQGLEWMGWINPNSGGTNYAQKFQGRVTMTRDTSIGTAYMELSRLRSDDTAIYYCTREDTWNYIDYWGQGTLVTVSS
VL: DIQMTQSPSSLSASVGDRVTITCRASQSISSHLNWYQQKPGKAPKLLIYAASSLHSGVPSRFSGSGSGTDFTLTISSLQPEDFATYCCQQSYSTPRTFGQGTKVEIK
B3: CD22-mAb-3 (antibody, V domains shown)
VH: QVTLRESGPALVKTTQTLTLTCTFSGFSLSTSGMCVSWIRQPPGKALEWLALIDWDDDKYYSTSLKTRLTISKDTSKSQVVLTMTSMDPVDTATYYCARIRYIYGYDYFDYWGQGTLVTVSS
VL: DIQMTQSPSSLSASVGDRVTITCRASQRISSQLNWYQQKPGKAPKLLIYAASSLQSGVPSRFSGSGSGTEFTLTISSLQPEDIATYCCQQTYSKPITFGQGTRLEIK
B4: CD22-mAb-2 (antibody, V domains shown)
VH: QVTLRESGPALVKPTQTLTLTCTFSGISLTTSGMCVSWIRQPPGKALEWLALIDWDGDNYYSTSLKTRLTISKDTSKNQVVLTMASMDPVDTATYYCARMGYTYGYDAFDIWGQGTMVTVSS
VL: EIVLTQSPEFQSVTPTEKVTITCRASQSIGSLLHWYQQKPDQSPKLLIKFASQSLSGVPSRFSGSGSGTDFTLTINSLEAEDAATYYCHQSRSLPFTFGPGTKVDIN

Biological target: human CD22, His-tagged recombinant (human, UniProt P20273)
Sequence (P20273 20-687): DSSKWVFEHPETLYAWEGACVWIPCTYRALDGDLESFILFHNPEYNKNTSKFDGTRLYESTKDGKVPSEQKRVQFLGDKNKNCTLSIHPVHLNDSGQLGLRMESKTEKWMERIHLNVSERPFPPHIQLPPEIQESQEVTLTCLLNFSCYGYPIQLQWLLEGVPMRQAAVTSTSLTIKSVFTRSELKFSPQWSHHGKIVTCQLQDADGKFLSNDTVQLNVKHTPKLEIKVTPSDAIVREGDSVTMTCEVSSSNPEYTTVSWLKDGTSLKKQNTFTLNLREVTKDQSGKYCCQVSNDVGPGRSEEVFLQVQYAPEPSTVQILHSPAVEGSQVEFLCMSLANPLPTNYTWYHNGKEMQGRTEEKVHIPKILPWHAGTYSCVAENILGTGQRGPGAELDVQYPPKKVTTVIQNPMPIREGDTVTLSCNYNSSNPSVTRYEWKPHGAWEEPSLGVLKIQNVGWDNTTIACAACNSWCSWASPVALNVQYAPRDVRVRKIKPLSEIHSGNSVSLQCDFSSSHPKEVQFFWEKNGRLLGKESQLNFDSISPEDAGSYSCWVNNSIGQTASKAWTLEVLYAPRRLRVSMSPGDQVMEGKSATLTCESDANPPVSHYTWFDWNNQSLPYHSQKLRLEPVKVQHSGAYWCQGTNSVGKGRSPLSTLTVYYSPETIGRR
Test: SPR

Binder | Kd [nM]
B1 | 2.59
B2 | 0.0377
B3 | 1.7
B4 | 0.358
